# Numbering of substitutions follows the chain as printed.
# B1: X-5 (ssRNA)
# RNA: UUCUUACCCAGCCGCCGUUC
# modifications: 2'-OMe
# B2: C5-M4A1W (ssRNA)
# RNA: UAUGAUAGGGACUUAGGGUGUACCACCGCCAAAGCCGCCU
# B3: C5-M4A1M (ssRNA)
# RNA: B2 RNA with G8C, G10C, G16C, G18C
# B4: X-M4A1W (ssRNA)
# RNA: UAUGAUAGGGACUUAGGGUGGCCGCCGUUCUCCUGGAUCC
# modifications: 2'-OMe
# B5: X-M4A1M (ssRNA)
# RNA: B4 RNA with G8C, G10C, G16C, G18C
# modifications: 2'-OMe
# B6: X-M4 (ssRNA)
# RNA: GCCGCCGUUCUCCUGGAUCC
# modifications: 2'-OMe
# B7: C5-M4 (ssRNA)
# RNA: UACCACCGCCAAAGCCGCCU
# Tests used:
# Details in all cases: tags: GST
# [1] = biological target: T1, UP1 (shortened hnRNP A1), GST fusion (UniProt P09651 P09651:1-196); assay: EMSA
# T1 sequence (P09651 1-196, one chain of several): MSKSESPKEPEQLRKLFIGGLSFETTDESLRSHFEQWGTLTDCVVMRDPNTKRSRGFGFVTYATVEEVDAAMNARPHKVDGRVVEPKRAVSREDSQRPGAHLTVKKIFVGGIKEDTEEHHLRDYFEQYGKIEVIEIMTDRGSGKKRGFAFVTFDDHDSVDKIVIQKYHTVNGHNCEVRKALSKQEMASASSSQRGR
# [2] = biological target: T1, UP1 (shortened hnRNP A1), GST fusion; assay: EMSA; best binder; 0.5 and 1 ug GST-UP1
# Method: (§1) A shortened version of recombinant hnRNP A1 (GST-UP1) was used for testing binding affinity. Each labeled oligo was incubated with increasing amounts of GST-UP1 (0.5 and 1 μg). The TS10 oligo is a telomeric DNA oligo of 60 nt containing nine high-affinity A1 binding sites. Complexes were fractionated in a 5% acrylamide gel. The position of the free oligos and complexes is shown. (C) Pre-mRNAs were incubated in a HeLa extract for 2 hours in the presence of increasing amounts of oligonucleotides (0.01, 0.02, 0.05, 0.1, 0.5 pmoles in 12.5 μl reaction). The RNA was extracted and fractionated on a denaturing 11% acrylamide gel. The position of the pre-mRNAs, splicing intermediates and products is indicated. (D) Based on the results obtained in panel C, the relative use of proximal and distal splicing was compiled, expressed as a ratio of percentages and plotted relative to the amount of oligo used. (E) Labeled pre-mRNAs were incubated as above in the presence of increasing amounts of oligonucleotides (0.01, 0.02, 0.05, 0.1, 0.5 pmoles in 12.5 μl reaction). The RNA was extracted and fractionated on a denaturing 11% acrylamide gel. The position of the pre-mRNAs, splicing intermediates and products is indicated. (F) Labeled pre-mRNAs were incubated with increasing amounts of oligonucleotides (0.01, 0.02, 0.05, 0.1, 0.5 pmoles in 12.5 μl reaction). […]
# [3] = biological target: T1, UP1 (shortened hnRNP A1), GST fusion; assay: EMSA; remark: listed apart in the source
# Method: as §1
# [4] = biological target: T1, UP1 (shortened hnRNP A1), GST fusion; assay: EMSA; best UP1 binder (printed X4-A1W)
# [5] = biological target: T1, UP1 (shortened hnRNP A1), GST fusion; assay: EMSA; text prints X-M4A1W as non-binder, evidently X-M4A1M
binder,measurement,setting,value
B1,binding result,[1],no binding
B2,binding result,[2],binds
B3,binding result,[3],no binding
B4,binding result,[4],binds
B5,binding result,[5],no binding
B6,binding result,[1],no binding
B7,binding result,[3],no binding

# — patent publication US20060058253, “Methods to reprogram splice site selection in pre-messenger rnas” (published 2006)
